In PMC3296735:
Substitutions are numbered along the chain they refer to.

Tests used:
[1] = molecular target: human GLP1R with C-terminal V5 epitope (GLP1R-V5) (human) (UniProt P43220)
N82Q-GLP1R-V5 (human) = N82Q-GLP1R-V5 (human) (UniProt P43220)
[2] = molecular target: N63,82,115Q-GLP-1R-V5 (human) (UniProt P43220)
N63Q-GLP1R-V5 (human) = N63Q-GLP1R-V5 (human) (UniProt P43220)
[3] = molecular target: N63,82Q-GLP-1R-V5 (human) (UniProt P43220)
N115Q-GLP1R-V5 (human) = N115Q-GLP1R-V5 (human) (UniProt P43220)
[4] = molecular target: T1, human GIPR with C-terminal V5 epitope (GIPR-V5) (human) (UniProt P48546)
T1 sequence: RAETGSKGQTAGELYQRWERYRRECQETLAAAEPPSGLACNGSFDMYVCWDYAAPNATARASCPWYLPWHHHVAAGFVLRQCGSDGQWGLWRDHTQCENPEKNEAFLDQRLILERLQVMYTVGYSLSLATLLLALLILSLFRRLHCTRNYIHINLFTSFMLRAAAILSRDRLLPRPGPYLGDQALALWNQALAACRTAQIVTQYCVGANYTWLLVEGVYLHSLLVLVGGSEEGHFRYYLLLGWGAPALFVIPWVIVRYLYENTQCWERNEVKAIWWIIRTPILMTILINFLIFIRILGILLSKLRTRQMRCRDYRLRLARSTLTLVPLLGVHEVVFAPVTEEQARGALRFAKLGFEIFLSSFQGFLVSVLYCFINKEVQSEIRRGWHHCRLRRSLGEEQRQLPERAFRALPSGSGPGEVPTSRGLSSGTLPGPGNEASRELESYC

N62Q-GIPR-V5 (human) = molecular target: T2, N62Q-GIPR-V5 (human) (UniProt P48546)
T2 sequence: T1 sequence with N41Q

[5] = molecular target: T1, human GIPR with C-terminal V5 epitope (GIPR-V5) (human); remark: listed apart in the source
N77Q-GIPR-V5 (human) = molecular target: T3, N77Q-GIPR-V5 (human) (UniProt P48546)
T3 sequence: T1 sequence with N56Q

[6] = cycloheximide chase western; protein remaining; conditions: glycan lost
[7] = calnexin co-immunolabelling intensity correlation (ER retention); conditions: glycan lost; control: wild type GLP-1R
[8] = molecular target: human GLP1R with C-terminal V5 epitope (GLP1R-V5) (human) (UniProt P43220); remark: listed apart in the source

GLP-1 7–36 amide (ligand) showed an EC50 of GLP-1 for cAMP production (LANCE TR-FRET, 30 min stimulation) in CHO cells expressing the receptor; series with the double and triple mutants [1] of 0.22 nM, an EC50 of GLP-1 for cAMP production (LANCE TR-FRET, 30 min stimulation) in CHO cells expressing the receptor; series with the single site mutants [1] of 0.41 nM and an EC50 of GLP-1 for cAMP production (LANCE TR-FRET, 30 min stimulation) in CHO cells expressing the receptor (N82Q-GLP1R-V5 (human)) of 0.71 nM. It also gave an EC50 of GLP-1 for cAMP production (LANCE TR-FRET, 30 min stimulation) in CHO cells expressing the receptor [2] of 2.7 nM, an EC50 of GLP-1 for cAMP production (LANCE TR-FRET, 30 min stimulation) in CHO cells expressing the receptor (N63Q-GLP1R-V5 (human)) of 0.63 nM and an EC50 of GLP-1 for cAMP production (LANCE TR-FRET, 30 min stimulation) in CHO cells expressing the receptor [3] of 0.58 nM. The EC50 of GLP-1 for cAMP production (LANCE TR-FRET, 30 min stimulation) in CHO cells expressing the receptor (N115Q-GLP1R-V5 (human)) was 0.72 nM.

“GIP peptide (Glucose-dependent Insulinotropic Polypeptide) (from UniProt P09681 52-93) (ligand)” gave an EC50 of GIP for cAMP production (LANCE TR-FRET) in CHO cells expressing the receptor; series of Figure 8A [4] of 0.034 nM, an EC50 of GIP for cAMP production (LANCE TR-FRET, 30 min stimulation) in CHO cells expressing the receptor (N62Q-GIPR-V5 (human)) of 0.1 nM and an EC50 of GIP for cAMP production (LANCE TR-FRET, 30 min stimulation) in CHO cells expressing the receptor [5] of 0.082 nM. It also gave an EC50 of GIP for cAMP production (LANCE TR-FRET, 30 min stimulation) in CHO cells expressing the receptor (N77Q-GIPR-V5 (human)) of 3.1 nM.

B1: GIPR (GIP receptor): glycosylation deficient GIPR (N62,77Q) (protein)
parent chain: MTTSPILQLLLRLSLCGLLLQRAETGSKGQTAGELYQRWERYRRECQETLAAAEPPSGLACNGSFDMYVCWDYAAPNATARASCPWYLPWHHHVAAGFVLRQCGSDGQWGLWRDHTQCENPEKNEAFLDQRLILERLQVMYTVGYSLSLATLLLALLILSLFRRLHCTRNYIHINLFTSFMLRAAAILSRDRLLPRPGPYLGDQALALWNQALAACRTAQIVTQYCVGANYTWLLVEGVYLHSLLVLVGGSEEGHFRYYLLLGWGAPALFVIPWVIVRYLYENTQCWERNEVKAIWWIIRTPILMTILINFLIFIRILGILLSKLRTRQMRCRDYRLRLARSTLTLVPLLGVHEVVFAPVTEEQARGALRFAKLGFEIFLSSFQGFLVSVLYCFINKEVQSEIRRGWHHCRLRRSLGEEQRQLPERAFRALPSGSGPGEVPTSRGLSSGTLPGPGNEASRELESYC
In the case of B1, the degradation_or_half_life ([6]; control: wild type GIPR-V5) is reported as “decreases”.

B2: GLP-1R (GLP1R): complete glycosylation-deficient mutant (N63,82,115Q) (protein)
parent chain: MAGAPGPLRLALLLLGMVGRAGPRPQGATVSLWETVQKWREYRRQCQRSLTEDPPPATDLFCNRTFDEYACWPDGEPGSFVNVSCPWYLPWASSVPQGHVYRFCTAEGLWLQKDNSSLPWRDLSECEESKRGERSSPEEQLLFLYIIYTVGYALSFSALVIASAILLGFRHLHCTRNYIHLNLFASFILRALSVFIKDAALKWMYSTAAQQHQWDGLLSYQDSLSCRLVFLLMQYCVAANYYWLLVEGVYLYTLLAFSVLSEQWIFRLYVSIGWGVPLLFVVPWGIVKYLYEDEGCWTRNSNMNYWLIIRLPILFAIGVNFLIFVRVICIVVSKLKANLMCKTDIKCRLAKSTLTLIPLLGTHEVIFAFVMDEHARGTLRFIKLFTELSFTSFQGLMVAILYCFVNNEVQLEFRKSWERWRLEHLHIQRDSSMKPLKCPTSSLSSGATAGSSMYTATCQASCS
For B2, the “localisation_or_trafficking, other: Pearson correlation” value [7] was “increases, just under 50% vs low level of correlation”.

B3: GLP-1R (GLP1R): glycosylation deficient GLP-1R (N63,82,115Q) (protein)
parent chain: B2 parent chain
For B3, the degradation_or_half_life ([6]; control: wild type GLP-1R-V5) was “decreases”.

B4: N62,77Q-GIPR-V5 (receptor)
chain: T1 sequence with N41Q, N56Q
B4 gave a rescue of the cAMP response to GIP (LANCE TR-FRET) in CHO cells co-expressing N62,77Q-GIPR-V5 and wild type GLP1R-V5; EC50 of GIP (neither receptor alone gave a response that could be fitted) [8] of 11 nM.
